Measured values from the supplement of paper PMC5998384.

Columns and labels:
HeLa Kyoto [1] = test: solubility in G1/S (NP-40 vs SDS abundance) (log2 ratio); higher = more soluble; details: cell cycle stage: G1/S
HeLa Kyoto [2] = test: melting temperature (median over replicates), in situ; higher = more thermally stable
HeLa Kyoto [3] = test: thermal stability score vs G1/S (z-score of summed log2 fold changes over temperatures); higher = more thermally stable than in G1/S
HeLa Kyoto [4] = test: solubility change mitosis vs G1/S (difference of NP-40 vs SDS log2 ratios) (log2 ratio difference); higher = more soluble in mitosis
[5] = cell cycle stage: early G1 (4.5 h after nocodazole release)
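Wherever melting temperature (median over replicates), in situ is given: HeLa Kyoto cells synchronized by double thymidine or nocodazole block, proteins quantified by TMT10plex mass spectrometry, three independent biological replicates.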
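Wherever solubility change mitosis vs G1/S (difference of NP-40 vs SDS log2 ratios) is given: synchronized HeLa Kyoto cells (double thymidine block for G1/S, nocodazole release for mitosis), protein amounts in NP-40 versus SDS lysates quantified by mass spectrometry, three biological replicates.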
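Wherever solubility in G1/S (NP-40 vs SDS abundance) is given: HeLa Kyoto cells arrested at G1/S by double thymidine block, proteins quantified by TMT10plex mass spectrometry in mild NP-40 versus SDS extracts, three biological replicates.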
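Wherever thermal stability score vs G1/S (z-score of summed log2 fold changes over temperatures) is given: synchronized HeLa Kyoto cells, proteins quantified by TMT10plex mass spectrometry, three biological replicates, mitosis taken 0.5 h after nocodazole release, G1/S directly after double thymidine block.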

Row | Sequence | solubility in G1/S (log2) (HeLa Kyoto [1]) | melting temperature (HeLa Kyoto [2]; cell cycle stage: G1/S) [°C] | melting temperature (HeLa Kyoto [2]; cell cycle stage: mitosis) [°C] | thermal stability score (HeLa Kyoto [3]; [5]) | thermal stability score (HeLa Kyoto [3]; cell cycle stage: mitosis) | solubility change mitosis (log2) (HeLa Kyoto [4])
1 | MSGVRAVRISIESACEKQVHEVGLDGTETYLPPLSMSQNLARLAQRIDFSQGSGSEEEEAAGTEGDAQEWPGAGSSADQDDEEGVVKFQPSLWPWDSVRNNLRSALTEMCVLYDVLSIVRDKKFMTLDPVSQDALPPKQNPQTLQLISKKKSLAGAAQILLKGAERLTKSVTENQENKLQRDFNSELLRLRQHWKLRKVGDKILGDLSYRSAGSLFPHHGTFEVIKNTDLDLDKKIPEDYCPLDVQIPSDLEGSAYIKVSIQKQAPDIGDLGTVNLFKRPLPKSKPGSPHWQTKLEAAQNVLLCKEIFAQLSREAVQIKSQVPHIVVKNQIISQPFPSLQLSISLCHSSNDKKSQKFATEKQCPEDHLYVLEHNLHLLIREFHKQTLSSIMMPHPASAPFGHKRMRLSGPQAFDKNEINSLQSSEGLLEKIIKQAKHIFLRSRAAATIDSLASRIEDPQIQAHWSNINDVYESSVKVLITSQGYEQICKSIQLQLNIGVEQIRVVHRDGRVITLSYQEQELQDFLLSQMSQHQVHAVQQLAKVMGWQVLSFSNHVGLGPIESIGNASAITVASPSGDYAISVRNGPESGSKIMVQFPRNQCKDLPKSDVLQDNKWSHLRGPFKEVQWNKMEGRNFVYKMELLMSALSPCLL [MED17] | 0.0389 | 50.4 | 49.7 | 0.0203 | 0.644 | -0.0898
2 | MSHPDYRMNLRPLGTPRGVSAVAGPHDIGASPGDKKSKNRSTRGKKKSIFETYMSKEDVSEGLKRGTLIQGVLRINPKKFHEAFIPSPDGDRDIFIDGVVARNRALNGDLVVVKLLPEEHWKVVKPESNDKETEAAYESDIPEELCGHHLPQQSLKSYNDSPDVIVEAQFDGSDSEDGHGITQNVLVDGVKKLSVCVSEKGREDGDAPVTKDETTCISQDTRALSEKSLQRSAKVVYILEKKHSRAATGFLKLLADKNSELFRKYALFSPSDHRVPRIYVPLKDCPQDFVARPKDYANTLFICRIVDWKEDCNFALGQLAKSLGQAGEIEPETEGILTEYGVDFSDFSSEVLECLPQGLPWTIPPEEFSKRRDLRKDCIFTIDPSTARDLDDALSCKPLADGNFKVGVHIADVSYFVPEGSDLDKVAAERATSVYLVQKVVPMLPRLLCEELCSLNPMSDKLTFSVIWTLTPEGKILDEWFGRTIIRSCTKLSYEHAQSMIESPTEKIPAKELPPISPEHSSEEVHQAVLNLHGIAKQLRQQRFVDGALRLDQLKLAFTLDHETGLPQGCHIYEYRESNKLVEEFMLLANMAVAHKIHRAFPEQALLRRHPPPQTRMLSDLVEFCDQMGLPVDFSSAGALNKSLTQTFGDDKYSLARKEVLTNMCSRPMQMALYFCSGLLQDPAQFRHYALNVPLYTHFTSPIRRFADVLVHRLLAAALGYRERLDMAPDTLQKQADHCNDRRMASKRVQELSTSLFFAVLVKESGPLESEAMVMGILKQAFDVLVLRYGVQKRIYCNALALRSHHFQKVGKKPELTLVWEPEDMEQEPAQQVITIFSLVEVVLQAESTALKYSAILKRPGTQGHLGPEKEEEESDGEPEDSSTS [DIS3L2] | -0.0925 | 50.6 | 50.5 | -0.153 | -0.198 | -0.1
3 | MSIMSYNGGAVMAMKGKNCVAIAADRRFGIQAQMVTTDFQKIFPMGDRLYIGLAGLATDVQTVAQRLKFRLNLYELKEGRQIKPYTLMSMVANLLYEKRFGPYYTEPVIAGLDPKTFKPFICSLDLIGCPMVTDDFVVSGTCAEQMYGMCESLWEPNMDPDHLFETISQAMLNAVDRDAVSGMGVIVHIIEKDKITTRTLKARMD [PSMB3] | 0.275 | 59.9 | 62.6 | -1.89 | -1.25 | -0.241
4 | MSKGPGPGGSAASSAPPAATAQVLQAQPEKPQHYTYLKEFRTEQCPLFVQHKCTQHRPYTCFHWHFVNQRRRRSIRRRDGTFNYSPDVYCTKYDEATGLCPEGDECPFLHRTTGDTERRYHLRYYKTGICIHETDSKGNCTKNGLHCAFAHGPHDLRSPVYDIRELQAMEALQNGQTTVEGSIEGQSAGAASHAMIEKILSEEPRWQETAYVLGNYKTEPCKKPPRLCRQGYACPYYHNSKDRRRSPRKHKYRSSPCPNVKHGDEWGDPGKCENGDACQYCHTRTEQQFHPEIYKSTKCNDMQQSGSCPRGPFCAFAHVEQPPLSDDLQPSSAVSSPTQPGPVLYMPSAAGDSVPVSPSSPHAPDLSALLCRNSSLGSPSNLCGSPPGSIRKPPNLEGIVFPGESGLAPGSYKKAPGFEREDQVGAEYLKNFKCQAKLKPHSLEPRSQEQPLLQPKQDMLGILPAGSPLTSSISSSITSSLAATPPSPVGTSSVPGMNANALPFYPTSDTVESVIESALDDLDLNEFGVAALEKTFDNSTVPHPGSITIGGSLLQSSAPVNIPGSLGSSASFHSASPSPPVSLSSHFLQQPQGHLSQSENTFLGTSASHGSLGLNGMNSSIWEHFASGSFSPGTSPAFLSGPGAAELARLRQELDEANSTIKQWEESWKQAKQACDAWKKEAEEAGERASAAGAECELAREQRDALEVQVKKLQEELERLHAGPEPQALPAFSDLEALSLSTLYSLQKQLRAHLEQVDKAVFHMQSVKCLKCQEQKRAVLPCQHAALCELCAEGSECPICQPGRAHTLQS [UNK] | 0.0454 | 51 | 50.9 | 0.349 | 1.68 | -0.0731
5 | MSKRHRLDLGEDYPSGKKRAGTDGKDRDRDRDREDRSKDRDRERDRGDREREREKEKEKELRASTNAMLISAGLPPLKASHSAHSTHSAHSTHSTHSAHSTHAGHAGHTSLPQCINPFTNLPHTPRYYDILKKRLQLPVWEYKDRFTDILVRHQSFVLVGETGSGKTTQIPQWCVEYMRSLPGPKRGVACTQPRRVAAMSVAQRVADEMDVMLGQEVGYSIRFEDCSSAKTILKYMTDGMLLREAMNDPLLERYGVIILDEAHERTLATDILMGVLKEVVRQRSDLKVIVMSATLDAGKFQIYFDNCPLLTIPGRTHPVEIFYTPEPERDYLEAAIRTVIQIHMCEEEEGDLLLFLTGQEEIDEACKRIKREVDDLGPEVGDIKIIPLYSTLPPQQQQRIFEPPPPKKQNGAIGRKVVVSTNIAETSLTIDGVVFVIDPGFAKQKVYNPRIRVESLLVTAISKASAQQRAGRAGRTRPGKCFRLYTEKAYKTEMQDNTYPEILRSNLGSVVLQLKKLGIDDLVHFDFMDPPAPETLMRALELLNYLAALNDDGDLTELGSMMAEFPLDPQLAKMVIASCDYNCSNEVLSITAMLSVPQCFVRPTEAKKAADEAKMRFAHIDGDHLTLLNVYHAFKQNHESVQWCYDNFINYRSLMSADNVRQQLSRIMDRFNLPRRSTDFTSRDYYINIRKALVTGYFMQVAHLERTGHYLTVKDNQVVQLHPSTVLDHKPEWVLYNEFVLTTKNYIRTCTDIKPEWLVKIAPQYYDMSNFPQCEAKRQLDRIIAKLQSKEYSQY [DHX15] | -0.42 | 53.9 | 53.7 | 0.104 | 1.61 | 0.272
6 | MSKYKLIMLRHGEGAWNKENRFCSWVDQKLNSEGMEEARNCGKQLKALNFEFDLVFTSVLNRSIHTAWLILEELGQEWVPVESSWRLNERHYGALIGLNREQMALNHGEEQVRLWRRSYNVTPPPIEESHPYYQEIYNDRRYKVCDVPLDQLPRSESLKDVLERLLPYWNERIAPEVLRGKTILISAHGNSSRALLKHLEGISDEDIINITLPTGVPILLELDENLRAVGPHQFLGDQEAIQAAIKKVEDQGKVKQAKK [BPGM] | 0.328 | 53.1 | 55.1 | 1.51 | 0.348 | -0.0036
7 | MSLEDPFFVVRGEVQKAVNTARGLYQRWCELLQESAAVGREELDWTTNELRNGLRSIEWDLEDLEETIGIVEANPGKFKLPAGDLQERKVFVERMREAVQEMKDHMVSPTAVAFLERNNREILAGKPAAQKSPSDLLDASAVSATSRYIEEQQATQQLIMDEQDQQLEMVSGSIQVLKHMSGRVGEELDEQGIMLDAFAQEMDHTQSRMDGVLRKLAKVSHMTSDRRQWCAIAVLVGVLLLVLILLFSL [STX10] | -0.293 | 52.1 | 51.6 | 2.01 | 0.0715 | -0.107
8 | MSLFGTTSGFGTSGTSMFGSATTDNHNPMKDIEVTSSPDDSIGCLSFSPPTLPGNFLIAGSWANDVRCWEVQDSGQTIPKAQQMHTGPVLDVCWSDDGSKVFTASCDKTAKMWDLSSNQAIQIAQHDAPVKTIHWIKAPNYSCVMTGSWDKTLKFWDTRSSNPMMVLQLPERCYCADVIYPMAVVATAERGLIVYQLENQPSEFRRIESPLKHQHRCVAIFKDKQNKPTGFALGSIEGRVAIHYINPPNPAKDNFTFKCHRSNGTNTSAPQDIYAVNGIAFHPVHGTLATVGSDGRFSFWDKDARTKLKTSEQLDQPISACCFNHNGNIFAYASSYDWSKGHEFYNPQKKNYIFLRNAAEELKPRNKK [RAE1] | -0.0787 | 49.8 | 49.1 | -1.34 | -0.473 | 0.128
9 | MSLGRLCRLLKPALLCGALAAPGLAGTMCASRDDWRCARSMHEFSAKDIDGHMVNLDKYRGFVCIVTNVASQUGKTEVNYTQLVDLHARYAECGLRILAFPCNQFGKQEPGSNEEIKEFAAGYNVKFDMFSKICVNGDDAHPLWKWMKIQPKGKGILGNAIKWNFTKFLIDKNGCVVKRYGPMEEPLVIEKDLPHYF [GPX4] | 0.136 | 56.3 | 56.3 | -2.51 | -2.1 | -0.141
10 | MSLHGKRKEIYKYEAPWTVYAMNWSVRPDKRFRLALGSFVEEYNNKVQLVGLDEESSEFICRNTFDHPYPTTKLMWIPDTKGVYPDLLATSGDYLRVWRVGETETRLECLLNNNKNSDFCAPLTSFDWNEVDPYLLGTSSIDTTCTIWGLETGQVLGRVNLVSGHVKTQLIAHDKEVYDIAFSRAGGGRDMFASVGADGSVRMFDLRHLEHSTIIYEDPQHHPLLRLCWNKQDPNYLATMAMDGMEVVILDVRVPCTPVARLNNHRACVNGIAWAPHSSCHICTAADDHQALIWDIQQMPRAIEDPILAYTAEGEINNVQWASTQPDWIAICYNNCLEILRV [DCAF7] | -0.0563 | 52.2 | 52.5 | 0.282 | -1.1 | -0.147
11 | MSLICSISNEVPEHPCVSPVSNHVYERRLIEKYIAENGTDPINNQPLSEEQLIDIKVAHPIRPKPPSATSIPAILKALQDEWDAVMLHSFTLRQQLQTTRQELSHALYQHDAACRVIARLTKEVTAAREALATLKPQAGLIVPQAVPSSQPSVVGAGEPMDLGELVGMTPEIIQKLQDKATVLTTERKKRGKTVPEELVKPEELSKYRQVASHVGLHSASIPGILALDLCPSDTNKILTGGADKNVVVFDKSSEQILATLKGHTKKVTSVVFHPSQDLVFSASPDATIRIWSVPNASCVQVVRAHESAVTGLSLHATGDYLLSSSDDQYWAFSDIQTGRVLTKVTDETSGCSLTCAQFHPDGLIFGTGTMDSQIKIWDLKERTNVANFPGHSGPITSIAFSENGYYLATAADDSSVKLWDLRKLKNFKTLQLDNNFEVKSLIFDQSGTYLALGGTDVQIYICKQWTEILHFTEHSGLTTGVAFGHHAKFIASTGMDRSLKFYSL [PRPF19] | -0.473 | 56.5 | 54 | -0.506 | -3.39 | 0.214
12 | MSLKLQASNVTNKNDPKSINSRVFIGNLNTALVKKSDVETIFSKYGRVAGCSVHKGYAFVQYSNERHARAAVLGENGRVLAGQTLDINMAGEPKPDRPKGLKRAASAIYSGYIFDYDYYRDDFYDRLFDYRGRLSPVPVPRAVPVKRPRVTVPLVRRVKTNVPVKLFARSTAVTTSSAKIKLKSSELQAIKTELTQIKSNIDALLSRLEQIAAEQKANPDGKKKGDGGGAGGGGGGGGSGGGGSGGGGGGGSSRPPAPQENTTSEAGLPQGEARTRDDGDEEGLLTHSEEELEHSQDTDADDGALQ [RALY] | 0.116 | 47.1 | 49.4 | 2.9 | 8.45 | 0.275
